From US20240209084A1 (CYTOARM, published 2024)
One block for each binder: values may come before it.

Legend:
CD19 [1] = target: T1, CD19 (human, UniProt P15391 20-556); assay: flow cytometry on Raji cells (CD19+), FITC goat anti-human IgG Fab
T1 construct: whole, on cells; also called CD19^+ B cell lymphoma (Raji)
T1 sequence (looked up): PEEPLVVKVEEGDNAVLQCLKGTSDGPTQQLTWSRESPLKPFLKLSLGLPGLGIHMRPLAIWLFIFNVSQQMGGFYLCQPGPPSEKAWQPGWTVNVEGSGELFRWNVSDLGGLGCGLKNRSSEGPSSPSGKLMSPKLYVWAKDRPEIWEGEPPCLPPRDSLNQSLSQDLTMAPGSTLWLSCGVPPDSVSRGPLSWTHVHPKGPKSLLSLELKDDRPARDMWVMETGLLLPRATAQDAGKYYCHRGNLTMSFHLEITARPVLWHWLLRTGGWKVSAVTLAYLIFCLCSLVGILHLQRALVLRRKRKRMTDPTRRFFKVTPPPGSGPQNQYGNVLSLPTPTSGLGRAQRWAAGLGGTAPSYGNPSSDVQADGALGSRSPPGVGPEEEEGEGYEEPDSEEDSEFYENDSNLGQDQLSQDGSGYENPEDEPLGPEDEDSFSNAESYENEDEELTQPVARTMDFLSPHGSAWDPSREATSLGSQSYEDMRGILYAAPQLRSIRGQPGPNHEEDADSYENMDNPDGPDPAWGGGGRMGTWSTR
Protocol: (§1) Samples were analyzed with FITC conjugated Goat anti-Human IgG Fab antibody and flow cytometry.

EpCAM = target: T2, EpCAM (human, UniProt P16422 24-314); assay: flow cytometry on LNCaP cells (EpCAM+), FITC goat anti-human IgG Fab
T2 construct: whole, on cells; also called epithelial cell adhesion molecule; EpCAM^+ prostate cancer (LNCaP)
T2 sequence (looked up): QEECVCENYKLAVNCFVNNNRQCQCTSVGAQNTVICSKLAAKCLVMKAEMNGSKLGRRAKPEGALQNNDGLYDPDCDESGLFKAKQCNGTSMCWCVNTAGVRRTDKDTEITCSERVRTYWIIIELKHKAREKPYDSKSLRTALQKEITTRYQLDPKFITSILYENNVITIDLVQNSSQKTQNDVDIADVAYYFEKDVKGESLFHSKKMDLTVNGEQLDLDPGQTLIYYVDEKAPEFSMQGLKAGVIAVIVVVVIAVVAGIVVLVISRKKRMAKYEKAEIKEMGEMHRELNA
Protocol: as §1

PSMA = target: T3, PSMA (human, UniProt Q04609 1-750); assay: flow cytometry on LNCaP cells (PSMA+), FITC goat anti-human IgG Fab
T3 construct: whole, on cells; also called prostate-specific membrane antigen; PSMA^+ Prostate cancer (LNCaP)
T3 sequence (Q04609 whole entry): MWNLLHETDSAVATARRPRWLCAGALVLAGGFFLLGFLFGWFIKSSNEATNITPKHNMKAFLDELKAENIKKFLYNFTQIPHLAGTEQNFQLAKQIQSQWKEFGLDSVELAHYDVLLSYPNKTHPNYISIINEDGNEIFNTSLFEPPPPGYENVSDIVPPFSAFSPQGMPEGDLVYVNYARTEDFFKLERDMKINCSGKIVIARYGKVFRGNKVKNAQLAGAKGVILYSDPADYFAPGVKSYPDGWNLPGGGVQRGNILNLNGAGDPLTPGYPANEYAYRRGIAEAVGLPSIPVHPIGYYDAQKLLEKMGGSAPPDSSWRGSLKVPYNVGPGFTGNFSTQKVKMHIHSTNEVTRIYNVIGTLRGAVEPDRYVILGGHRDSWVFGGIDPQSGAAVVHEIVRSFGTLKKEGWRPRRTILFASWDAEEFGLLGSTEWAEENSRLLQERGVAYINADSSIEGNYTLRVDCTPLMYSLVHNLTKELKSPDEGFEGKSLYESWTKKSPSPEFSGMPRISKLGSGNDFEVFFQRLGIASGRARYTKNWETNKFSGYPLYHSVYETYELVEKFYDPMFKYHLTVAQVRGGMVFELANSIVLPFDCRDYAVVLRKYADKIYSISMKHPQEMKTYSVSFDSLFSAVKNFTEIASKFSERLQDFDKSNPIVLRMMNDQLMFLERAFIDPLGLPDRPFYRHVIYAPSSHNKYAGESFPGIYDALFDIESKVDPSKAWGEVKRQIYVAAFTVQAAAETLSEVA
Protocol: as §1

CD19 [2] = target: T1, CD19; assay: flow cytometry titration on Raji cells (CD19+), FITC goat anti-human IgG Fab
Protocol: (§2) FIG. 19B: binding activity to CD19⁺ B cells lymphoma (Raji). […] Fluorescent signal on cell surface was detected using flow cytometry.
(§3) Binding abilities of the BsAbs against CD3⁺ T cells (Jurkat) and CD19⁺ B cells lymphoma (Raji) were analyzed using flow cytometry.

CD3 = target: T4, CD3 (human, UniProt P07766 23-207); assay: flow cytometry titration on Jurkat cells (CD3+), FITC goat anti-human IgG Fab
T4 construct: whole, on cells; CD3 is a multi-chain complex; also called CD3 on CD3-positive T cells; CD3^+ T cells (Jurkat)
T4 sequence (P07766 23-207): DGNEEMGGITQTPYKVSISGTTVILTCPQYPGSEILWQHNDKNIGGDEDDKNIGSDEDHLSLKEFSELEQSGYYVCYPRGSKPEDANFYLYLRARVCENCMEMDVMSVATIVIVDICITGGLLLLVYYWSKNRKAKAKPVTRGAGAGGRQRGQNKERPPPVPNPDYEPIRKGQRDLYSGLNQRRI
Protocol: as §2, §3

binding result (CD19 [1]): binds
B1: CTA03Fab/CTAT02scFv (bispecific antibody)
heavy: EVQLLESGGGLVQPGGSLRLSCAASGFTFSSFPMAWVRQAPGKGLEWVSTISTSGGRTYYRDSVKGRFTISRDNSKNTLYLQMNSLRAEDTAVYYCAKFRQYSGGFDYWGQGTLVTVSSASTKGPSVFPLAPSSKSTSGGTAALGCLVKDYFPEPVTVSWNSGALTSGVHTFPAVLQSSGLYSLSSVVTVPSSSLGTQTYICNVNHKPSNTKVDKKVEPKSCGGGSGGGEVKLQESGPGLVAPSQSLSVTCTVSGVSLPDYGVSWIRQPPRKGLEWLGVIWGSETTYYNSALKSRLTIIKDNSKSQVFLKMNSLQTDDTAIYYCAKHYYYGGSYAMDYWGQGTSVTVSSGGGGSGGGGSGGGGSDIQMTQTTSSLSASLGDRVTISCRASQDISKYLNWYQQKPDGTVKLLIYHTSRLHSGVPSRFSGSGSGTDYSLTISNLEQEDIATYFCQQGNTLPYTFGGGTKLEIT
light: DIQLTQPNSVSTSLGSTVKLSCTLSSGNIENNYVHWYQLYEGRSPTTMIYDDDKRPDGVPDRFSGSIDRSSNSAFLTIHNVAIEDEAIYFCHSYVSSFNVFGGGTKLTVLRQPKAAPSVTLFPPSSEELQANKATLVCLISDFYPGAVTVAWKADSSPVKAGVETTTPSKQSNNKYAASSYLSLTPEQWKSHRSYSCQVTHEGSTVEKTVAPTECS
notes: also called anti-CD3Fab/anti-CD19scFv; parent CTA03Fab/CTAT02scFv BsAb

binding result (EpCAM): binds
B2: CTA03Fab/CTAT07scFv (bispecific antibody)
heavy: EVQLLESGGGLVQPGGSLRLSCAASGFTFSSFPMAWVRQAPGKGLEWVSTISTSGGRTYYRDSVKGRFTISRDNSKNTLYLQMNSLRAEDTAVYYCAKFRQYSGGFDYWGQGTLVTVSSASTKGPSVFPLAPSSKSTSGGTAALGCLVKDYFPEPVTVSWNSGALTSGVHTFPAVLQSSGLYSLSSVVTVPSSSLGTQTYICNVNHKPSNTKVDKKVEPKSCGGGSGGGEVQLVQSGPGLVQPGGSVRISCAASGYTFTNYGMNWVKQAPGKGLEWMGWINTYTGESTYADSFKGRFTFSLDTSASAAYLQINSLRAEDTAVYYCARFAIKGDYWGQGTLLTVSSGGGGSGGGGSGGGGSDIQMTQSPSSLSASVGDRVTITCRSTKSLLHSNGITYLYWYQQKPGKAPKLLIYQMSNLASGVPSRFSSSGSGTDFTLTISSLQPEDFATYYCAQNLEIPRTFGQGTKVELK
light: DIQLTQPNSVSTSLGSTVKLSCTLSSGNIENNYVHWYQLYEGRSPTTMIYDDDKRPDGVPDRFSGSIDRSSNSAFLTIHNVAIEDEAIYFCHSYVSSFNVFGGGTKLTVLRQPKAAPSVTLFPPSSEELQANKATLVCLISDFYPGAVTVAWKADSSPVKAGVETTTPSKQSNNKYAASSYLSLTPEQWKSHRSYSCQVTHEGSTVEKTVAPTECS
notes: also called antiCD3Fab/anti-EpCAMscFv

binding result (PSMA): binds
B3: CTA03Fab/CTAT05scFv (bispecific antibody)
heavy: EVQLLESGGGLVQPGGSLRLSCAASGFTFSSFPMAWVRQAPGKGLEWVSTISTSGGRTYYRDSVKGRFTISRDNSKNTLYLQMNSLRAEDTAVYYCAKFRQYSGGFDYWGQGTLVTVSSASTKGPSVFPLAPSSKSTSGGTAALGCLVKDYFPEPVTVSWNSGALTSGVHTFPAVLQSSGLYSLSSVVTVPSSSLGTQTYICNVNHKPSNTKVDKKVEPKSCGGGSGGGEVQLVQSGAEVKKPGASVKISCKTSGYTFTEYTIHWVKQASGKGLEWIGNINPNNGGTTYNQKFEDRATLTVDKSTSTAYMELSSLRSEDTAVYYCAAGWNFDYWGQGTTVTVSSGGGGSGGGGSGGGGSDIVMTQSPSSLSASVGDRVTITCKASQDVGTAVDWYQQKPGKAPKLLIYWASTRHTGVPDRFTGSGSGTDFTLTISSLQPEDFADYFCQQYNSYPLTFGGGTKLEIK
light: DIQLTQPNSVSTSLGSTVKLSCTLSSGNIENNYVHWYQLYEGRSPTTMIYDDDKRPDGVPDRFSGSIDRSSNSAFLTIHNVAIEDEAIYFCHSYVSSFNVFGGGTKLTVLRQPKAAPSVTLFPPSSEELQANKATLVCLISDFYPGAVTVAWKADSSPVKAGVETTTPSKQSNNKYAASSYLSLTPEQWKSHRSYSCQVTHEGSTVEKTVAPTECS
notes: also called antiCD3Fab/anti-PSMAscFv

EC50 (read off the curve) (CD19 [2]): ~1 µg/mL
B4: CTA03-01Fab/CTAT02-02scFv (bispecific antibody)
heavy: EVQLLESGGGLVQPGGSLRLSCAASGFTFSSFPMAWVRQAPGKGLEWVSTISTSGGRTYYRDSVKGRFTISRDNSKNTLYLQMNSLRAEDTAVYYCAKFRQYSGGFDYWGQGTLVTVSSASTKGPSVFPLAPSSKSTSGGTAALGCLVKDYFPEPVTVSWNSGALTSGVHTFPAVLQSSGLYSLSSVVTVPSSSLGTQTYICNVNHKPSNTKVDKKVEPKSCGGGSGGGEVKLQESGPGLVAPSQSLSVTCTVSGVSLPDYGVSWIRQPPRKGLEWLGVIWGSETTYYNSALKSRLTIIKDNSKSQVFLKMNSLQTDDTAIYYCAKHYYYGGSYAMDYWGQGTSVTVSSGGGGSGGGGSGGGGSDIQMTQTTSSLSASLGDRVTISCRASQDISKYLNWYQQKPEGTVKLLIYHTSRLHSGVPSRFSGSGSGTDYSLTISNLEQEDIATYFCQQGNTLPYTFGGGTKLEIT
light: DIQLTQPNSVSTSLGSTVKLSCTLSSGNIENNYVHWYQLYEGRSPTTMIYDDDKRPDAVPDRFSGSIDRSSNSAFLTIHNVAIEDEAIYFCHSYVSSFNVFGGGTKLTVLRQPKAAPSVTLFPPSSEELQANKATLVCLISDFYPGAVTVAWKADSSPVKAGVETTTPSKQSNNKYAASSYLSLTPEQWKSHRSYSCQVTHEGSTVEKTVAPTECS
notes: also called CTA03Fab(VLG58A)/CTAT02scFv(VLD41E)

EC50 (read off the curve) (CD3): ~0.2 µg/mL
binding result (CD19 [2]): binds
B5: CTA03-02Fab/CTAT02-02scFv (bispecific antibody)
heavy: EVQLLESGGGLVQPGGSLRLSCAASGFTFSSFPMAWVRQAPGKGLEWVSTISTSGGRTYYRDSVKGRFTISRDNSKNTLYLQMNSLRAEDTAVYYCAKFRQYSGGFDYWGQGTLVTVSSASTKGPSVFPLAPSSKSTSGGTAALGCLVKDYFPEPVTVSWNSGALTSGVHTFPAVLQSSGLYSLSSVVTVPSSSLGTQTYICNVNHKPSNTKVDKKVEPKSCGGGSGGGEVKLQESGPGLVAPSQSLSVTCTVSGVSLPDYGVSWIRQPPRKGLEWLGVIWGSETTYYNSALKSRLTIIKDNSKSQVFLKMNSLQTDDTAIYYCAKHYYYGGSYAMDYWGQGTSVTVSSGGGGSGGGGSGGGGSDIQMTQTTSSLSASLGDRVTISCRASQDISKYLNWYQQKPEGTVKLLIYHTSRLHSGVPSRFSGSGSGTDYSLTISNLEQEDIATYFCQQGNTLPYTFGGGTKLEIT
light: DIQLTQPNSVSTSLGSTVKLSCTLSSGNIENNYVHWYQLYEGRSPTTMIYDDDKRPEGVPDRFSGSIDRSSNSAFLTIHNVAIEDEAIYFCHSYVSSFNVFGGGTKLTVLRQPKAAPSVTLFPPSSEELQANKATLVCLISDFYPGAVTVAWKADSSPVKAGVETTTPSKQSNNKYAASSYLSLTPEQWKSHRSYSCQVTHEGSTVEKTVAPTECS
notes: also called CTA03Fab(VLD57E)/CTAT02scFv(VLD41E)

binding result (CD19 [2]): binds
B6: CTA03-02Fab/CTAT02-01scFv (bispecific antibody)
heavy: EVQLLESGGGLVQPGGSLRLSCAASGFTFSSFPMAWVRQAPGKGLEWVSTISTSGGRTYYRDSVKGRFTISRDNSKNTLYLQMNSLRAEDTAVYYCAKFRQYSGGFDYWGQGTLVTVSSASTKGPSVFPLAPSSKSTSGGTAALGCLVKDYFPEPVTVSWNSGALTSGVHTFPAVLQSSGLYSLSSVVTVPSSSLGTQTYICNVNHKPSNTKVDKKVEPKSCGGGSGGGEVKLQESGPGLVAPSQSLSVTCTVSGVSLPDYGVSWIRQPPRKGLEWLGVIWGSETTYYNSALKSRLTIIKDNSKSQVFLKMNSLQTDDTAIYYCAKHYYYGGSYAMDYWGQGTSVTVSSGGGGSGGGGSGGGGSDIQMTQTTSSLSASLGDRVTISCRASQDISKYLNWYQQKPDATVKLLIYHTSRLHSGVPSRFSGSGSGTDYSLTISNLEQEDIATYFCQQGNTLPYTFGGGTKLEIT
light: DIQLTQPNSVSTSLGSTVKLSCTLSSGNIENNYVHWYQLYEGRSPTTMIYDDDKRPEGVPDRFSGSIDRSSNSAFLTIHNVAIEDEAIYFCHSYVSSFNVFGGGTKLTVLRQPKAAPSVTLFPPSSEELQANKATLVCLISDFYPGAVTVAWKADSSPVKAGVETTTPSKQSNNKYAASSYLSLTPEQWKSHRSYSCQVTHEGSTVEKTVAPTECS
notes: also called CTA03Fab(VLD57E)/CTAT02scFv(VLG42A)

binding result (CD19 [2]): binds
B7: CTA03-01Fab/CTAT02-01scFv (bispecific antibody)
heavy: EVQLLESGGGLVQPGGSLRLSCAASGFTFSSFPMAWVRQAPGKGLEWVSTISTSGGRTYYRDSVKGRFTISRDNSKNTLYLQMNSLRAEDTAVYYCAKFRQYSGGFDYWGQGTLVTVSSASTKGPSVFPLAPSSKSTSGGTAALGCLVKDYFPEPVTVSWNSGALTSGVHTFPAVLQSSGLYSLSSVVTVPSSSLGTQTYICNVNHKPSNTKVDKKVEPKSCGGGSGGGEVKLQESGPGLVAPSQSLSVTCTVSGVSLPDYGVSWIRQPPRKGLEWLGVIWGSETTYYNSALKSRLTIIKDNSKSQVFLKMNSLQTDDTAIYYCAKHYYYGGSYAMDYWGQGTSVTVSSGGGGSGGGGSGGGGSDIQMTQTTSSLSASLGDRVTISCRASQDISKYLNWYQQKPDATVKLLIYHTSRLHSGVPSRFSGSGSGTDYSLTISNLEQEDIATYFCQQGNTLPYTFGGGTKLEIT
light: DIQLTQPNSVSTSLGSTVKLSCTLSSGNIENNYVHWYQLYEGRSPTTMIYDDDKRPDAVPDRFSGSIDRSSNSAFLTIHNVAIEDEAIYFCHSYVSSFNVFGGGTKLTVLRQPKAAPSVTLFPPSSEELQANKATLVCLISDFYPGAVTVAWKADSSPVKAGVETTTPSKQSNNKYAASSYLSLTPEQWKSHRSYSCQVTHEGSTVEKTVAPTECS
notes: also called CTA03Fab(VLG58A)/CTAT02scFv(VLG42A)
